# Legend:
# Type in all cases: cell-based, human
# 293 = assay: Apoptosis by FACS, non-lymphoid tumor cell lines; details: Apo-2 ligand 3 μg/ml, 24 hours, control 12.3
# Experimental: (§1) The effects of the Apo-2 ligand on the 9D cells, as well as on Raji cells (human Burkitt's lymphoma B cell line, ATCC CCL 86) and Jurkat cells (human acute T cell leukemia cell line, ATCC TIB 152) were further analyzed by FACS. The FACS analysis was conducted, using established criteria for apoptotic cell death, namely, the relation of fluorescence staining of the cells with two markers: (a) propidium iodide (“PI”) dye, which stains apoptotic but not live cells, and (b) a fluorescent derivative of the protein, annexin V, which binds to the exposed phosphatidylserine found on the surface of apoptotic cells, but not on live cells [Darzynkiewicz et al., Methods in Cell Biol., 41:15-38 (1994); Fadok et al., J. Immunol., 148:2207-2216 (1992); Koopman et al., Blood, 84:1415-1420 (1994)].
# (§2) The 9D cells (FIG. 2B), Raji cells (FIG. 2C), and Jurkat cells (FIG. 2D) were incubated (1×10^6 cells/well) for 24 hours with a media control (left panels), Apo-2 ligand (3 μg/ml, prepared as described in Example 3) (center panels), or anti-Apo-1 ligand antibody, CH11 (1 μg/ml) (right panels). The cells were then washed, stained with PI and with fluorescein thiocyanate (FITC)-conjugatedannexin V (purchased from Brand Applications) and analyzed by flow cytometry. Cells negative for both PI and annexin V staining (quadrant 3) represent live cells; PI-negative, annexin V-positive staining cells (quadrant 4) represent early apoptotic cells; PI-positive, annexin V-positive staining cells (quadrant 2) represent primarily cells in late stages of apoptosis.
# (§3) The effect of Apo-2 ligand on human non-lymphoid tumor cell lines was examined using the following cell lines: HeLa (derived from human cervical carcinoma, ATCC CCL 22); ME-180 (derived from human cervical carcinoma, ATCC HTB 33); MCF7 (derived from human breast carcinoma, ATCC HTB 22); U-937 (derived from human hystiocytic lymphoma, ATCC CRL 1593); A549 (derived from human lung carcinoma, ATCC CCL 185); and 293 (derived from an adenovirus-transformed human embryonic kidney cells, ATCC CCL 1573).
# (§4) In the assay, 1×10^6 cells of each cell line were incubated for 24 hours with a media control, Apo-2 ligand (3 μg/ml, prepared as described in Example 3), or anti-Apo-1 monoclonal antibody, CH 11 (1 μg/m1). Following the incubation, apoptosis was measured by FACS analysis, as described in Example 4.
# ME-180 = assay: Apoptosis by FACS, non-lymphoid tumor cell lines; details: Apo-2 ligand 3 μg/ml, 24 hours, control 8.6
# Experimental: as §1, §2, §3, §4
# MCF7 = assay: Apoptosis by FACS, non-lymphoid tumor cell lines; details: Apo-2 ligand 3 μg/ml, 24 hours, control 39.9
# Experimental: as §1, §2, §3, §4
# A549 = assay: Apoptosis by FACS, non-lymphoid tumor cell lines; details: Apo-2 ligand 3 μg/ml, 24 hours, control 16.5
# Experimental: as §1, §2, §3, §4
# U-937 = assay: Apoptosis by FACS, non-lymphoid tumor cell lines; details: Apo-2 ligand 3 μg/ml, 24 hours, control 3.6
# Experimental: as §1, §2, §3, §4
# HeLa = assay: Apoptosis by FACS, non-lymphoid tumor cell lines; details: Apo-2 ligand 3 μg/ml, 24 hours, control 5.3
# Experimental: as §1, §2, §3, §4
# T lymphocytes = assay: Apoptosis by FACS in peripheral blood T cells; details: Apo-2 ligand 3 μg/ml, 3 days, mean ±SE
# Experimental: Peripheral blood mononuclear cells (“PBMC&”) were isolated from the blood of human donors by Ficoll density gradient centrifugation using Lymphocyte Separation Medium (LSM®, Organon Teknika). An isolated population of T cells was prepared from the PBMC by removal of B cells through surface Ig binding to an anti-Ig column and removal of monocytes through Fc receptor binding to an Ig column (R & D Systems). An isolated population of B cells was prepared from the PBMC by complement-mediatedelimination of T cells reacted with the anti-CD3 antibody produced by the OKT3 myeloma (ATCC, CRL 8001) and of monocytes reacted with a monocyte-specific antibody produced by the 4F2C13 hybridoma (ATCC, HB 22). Additional monocyte removal was accomplished by adherence to plastic.
# The freshly isolated peripheral blood B or T cells (1×10^6 cells/well) were cultured for 3 days in the presence of a media control or Apo-2 ligand (3 μg/ml, prepared as described in Example 3). For activation, B cells were treated simultaneously with lipopolysaccharide (“LPS”, 1 μg/ml), and T cells were treated with phorbol myristate acetate (“PMA”, 10 ng/ml) plus ionomycin (1 μg/ml) (Sigma). For interleukin-2 (“IL-2”) pretreatment, T cells were cultured for 3-5 days in the presence of IL-2 (50 U/ml) (Genzyme) before exposure to Apo-2 ligand. Apoptosis was determined using FACS analysis essentially as described above in Example 4. However, B cells were gated by anti-CD19/CD20 antibodies (Jackson Immunoresearch), and T cells were gated by anti-CD4/CD8 antibodies (Jackson lmmunoresearch). The results are shown in Table 2 below, representing means ±SE of independent experiments [B lymphocytes—9 experiments; T lymphocytes—8 experiments; T lymphocytes plus IL-2-5 experiments], in which 50,000 cells were analyzed per data point. Statistical analysis was performed using the student t-test. In Table 2, a=p<0.05 and b=p<0.02 relative respective control.
# T24 = assay: Cell viability by crystal violet staining
# Experimental: The following human tumor cell lines were assayed: A549 (lung carcinoma, ATCC CCL 185); HCT116 (colon carcinoma, ATCC CCL 247); SW480 (colon adenocarcinoma, ATCC CCL 228); MDA231 (breast adenocarcinoma, ATCC HTB 26); HeLa (cervical carcinoma, ATCC CCL 22); ME-180 (cervical carcinoma, ATCC HTB 33); T24 (bladder carcinoma. ATCC HTB 4); SK-N-AS (neuroblastoma, White et al., Proc. Natl. Acad. Sci., 92:5520-5524 (1995)). The cells were plated at 2.5×10^5 cells/ml in 96 well plates and incubated overnight. The cells were cultured in the presence of 2-fold dilutions of Apo-2 ligand (ranging from 100 ng/ml to 0.01 ng/ml). In some of the cultures, a chemotherapeuticagent was also added for 24 hours-cyclohexamide (“CHX”) (50 μg/ml; Sigma Chemicals), Doxorubicin (10-100 μg/ml; Pharmacia), or 5-FU (6 mg/ml; Roche). After 24 hours of incubation, the cells were stained with 0.5% crystal-violetin 20% methanol. Cell viability was determined by eluting the dye from the stained cells with 0.1M sodium citrate (0.1M citric acid in 50% methanol), and measuring absorbance at 540 nm.
molecule,measurement,setting,value
"Apo-2L: purified soluble His10-tagged human Apo-2 ligand, residues 114-281, from baculovirus-infected Sf9 cells (Example 3); used in Examples 4-14 (protein) MGHHHHHHHHHHSSGHIDDDDKHMVRERGPQRVAAHITGTRGRSNTLSSPNSKNEKALGRKINSWESSRSGHSFLSNLHLRNGELVIHEKGFYYIYSQTYFRFQEEIKENTKNDKQMVQYIYKYTSYPDPILLMKSARNSCWSKDAEYGLYSIYQGGIFELKENDRIFVSVTNEHLIDMDHEASFFGAFLVG",% apoptotic cells,293,12.2%
same,% apoptotic cells,ME-180,80.7%
same,% apoptotic cells,MCF7,47.3%
same,% apoptotic cells,A549,74.6%
same,% apoptotic cells,U-937,62.3%
same,% apoptotic cells,HeLa,18.6%
same,% apoptolic cells,"T lymphocytes; IL-2 pretreatment (50 U/ml, 3-5 days), control 13.7 ± 1.2, b=p<0.02",34.5 ± 4.8^b %
same,% apoptolic cells,"T lymphocytes; PMA/ionomycin, control 40.3 ± 4.4, a=p<0.05",54.2 ± 3.3^a %
same,% apoptolic cells,"T lymphocytes; treatment none, control 6.3 ± 0.6",8.2 ± 0.8%
same,Apo-2L sensitivity ENHANCED BY Dox,"T24; T24, Doxorubicin 10-100 μg/ml, 24 hours",yes
same,Apo-2L sensitivity ENHANCED BY CHX,"T24; T24, cyclohexamide 50 μg/ml, 24 hours",yes
same,Apo-2L SENSITIVITY,"T24; T24 bladder carcinoma, p53 mut, 24 h",+++ (>70% death after 24 h with 10 ng/ml Apo-2L)
